Each block holds one binder with its values, some of them ahead of it.
How the values were obtained:
[1] = molecular target: T1, SR344 (soluble human IL-6R, N-terminal 1st to 344th amino acids) (human, UniProt P08887 20-344, limits assumed); assay: cell-based or functional assay
T1 sequence (looked up): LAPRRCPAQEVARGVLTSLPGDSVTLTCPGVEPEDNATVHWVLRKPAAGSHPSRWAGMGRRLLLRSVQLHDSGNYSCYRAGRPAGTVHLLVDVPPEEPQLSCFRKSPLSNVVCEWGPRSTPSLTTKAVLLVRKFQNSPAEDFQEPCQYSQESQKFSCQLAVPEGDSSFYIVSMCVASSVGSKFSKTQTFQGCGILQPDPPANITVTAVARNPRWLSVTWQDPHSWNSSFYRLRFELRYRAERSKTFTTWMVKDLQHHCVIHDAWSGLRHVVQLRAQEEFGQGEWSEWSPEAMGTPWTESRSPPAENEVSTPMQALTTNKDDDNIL

[2] = molecular target: T1, SR344 (soluble human IL-6R, N-terminal …); assay: SPR (Biacore T100), antibody captured on Protein A/G, SR344 as analyte, 37°C
[3] = molecular target: T1, SR344 (soluble human IL-6R, N-terminal …); assay: SPR (Biacore T100), SR344 as analyte, 37°C; end of the range tied by the KD values of Table 16
[4] = molecular target: T2, recombinant human IL-6R sR (R&D systems) (human, UniProt P08887 20-358); assay: SPR (Biacore T100), antibody captured on Protein A, rhIL-6sR as analyte, 25°C
T2 construct: Bought soluble receptor; also called rhIL-6sR; rhIL-s6R
T2 sequence (looked up): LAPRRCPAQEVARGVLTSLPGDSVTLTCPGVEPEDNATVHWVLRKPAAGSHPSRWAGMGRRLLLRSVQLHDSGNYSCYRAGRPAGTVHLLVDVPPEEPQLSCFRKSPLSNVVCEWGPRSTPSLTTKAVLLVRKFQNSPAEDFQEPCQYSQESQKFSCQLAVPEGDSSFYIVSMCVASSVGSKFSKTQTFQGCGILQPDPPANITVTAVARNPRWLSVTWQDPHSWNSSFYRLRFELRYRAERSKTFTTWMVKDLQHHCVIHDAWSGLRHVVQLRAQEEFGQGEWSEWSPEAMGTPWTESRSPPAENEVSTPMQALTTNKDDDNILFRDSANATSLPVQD

[5] = molecular target: T2, recombinant human IL-6R sR (R&D systems); assay: SPR (Biacore T100), antibody captured on Protein A/G, 37°C; end of the range tied by the KD values of Table 3
[6] = molecular target: T1, SR344 (soluble human IL-6R, N-terminal …); assay: as above
[7] = molecular target: T2, recombinant human IL-6R sR (R&D systems); assay: SPR (Biacore T100), antibody captured on Protein A, rhIL-6sR as analyte, 25°C; remark: listed apart in the source
[8] = molecular target: T3, soluble human FcRn (complex of FcRn and β2-microglobulin) (human, UniProt P55899 24-290; P61769 21-119); assay: SPR (Biacore 3000), antibody captured, human FcRn as analyte, pH 6.0
T3 construct: Expressed constructs contain the signal regions (FcRn Met1-Leu290; β2-microglobulin Met1-Met119); also called hFcRn

B2: Fv3-M73 (antibody, V domains shown)
VH: QVQLQESGPGLVKPSETLSLTCAVSGHSISHDHAWSWVRQPPGEGLEWIGFISYSGITNYNPTLQGRVTISRDNSKNTLYLQMNSLRAEDTAVYYCARSLARTTAMDYWGEGTLVTVSS
VL: DIQMTQSPSSLSASVGDSVTITCQASRDISSHLNWYQQKPGKAPELLIYYGSHLLSGVPSRFSGSGSGTDFTFTISSLEAEDAATYYCGQGNRLPYTFGQGTKVEIER
notes: also called H chain VH4-M73, L chain VL1-kappa
fold higher affinity than TOCILIZUMAB [3]: 3 times

B5: H53/L28 (antibody, IgG1, V domains shown)
VH: QVQLQESGPGLVKPSETLSLTCAVSGYSISDDHAWSWVRQPPGEGLEWIGYISYSGITNYNPSLKGRVTISRDTSKNQFSLKLSSVTAADTAAYYCARSLARTTAMDYWGEGTLVTVSS
VL: DIQMTQSPSSLSASVGDSVTITCQASQDISSYLNWYQQKPGKAPELLIYYGSELHSGVPSRFSGSGSGTDFTFTISSLEAEDAATYYCQQGNSLPYTFGQGTKVEIE
notes: made from the humanized PM-1 IgG1 vectors; also called altered antibody H53/L28
fold reduction of KD compared to WT [2]: ~6 fold

B6: PF1 antibody (antibody, IgG1, V domains shown)
VH: QVQLQESGPGLVKPSETLSLTCAVSGYSISDDHAWSWVRQPPGEGLEWIGYISYSGITNYNPSLKGRVTISRDTSKNQFSLKLSSVTAADTAAYYCARVLARITAMDYWGEGTLVTVSS
VL: DIQMTQSPSSLSASVGDSVTITCQASQDISSYLNWYQQKPGKAPELLIYYGSELHSGVPSRFSGSGSGTDFTFTISSLEAEDAATYYCGQGNRLPYTFGQGTKVEIE
notes: also called PF1-IgG1; PF1_H/PF1_L
fold improved affinity compared to WT [2]: ~150 times

B8: RDC-8 (antibody, V domains shown)
VH: QVQLQESGPGLVRPSQTLSLTCTVSGYSITSDHAWSWVRQPPGRGLEWIGYISYSGITTYNPSLKSRVTMLRDTSKNQFSLRLSSVTAADTAVYYCARLLARITAMDYWGQGSLVTVSS
VL: DIQMTQSPSSLSASVGDRVTITCRASQDISSYLNWYQQKPGKAPKLLIYYTSRLHSGVPSRFSGSGSGTDFTFTISSLQPEDIATYYCQQGNTLPYTFGQGTKVEIK
notes: IgG; also called H chain RDC-8H, L chain L(WT)
koff [7]: 3.8e-05 s⁻¹

B9: WT-M58 (antibody)
heavy: QVQLQESGPGLVRPSQTLSLTCTVSGYSITSDHAWSWVRQPPGRGLEWIGYISYSGITTYNPSLKSRVTMLRDTSKNQFSLRLSSVTAADTAVYYCARSLARTTAMDYWGQGSLVTVSSASTKGPSVFPLAPSSKSTSGGTAALGCLVKDYFPEPVTVSWNSGALTSGVHTFPAVLQSSGLYSLSSVVTVPSSNFGTQTYTCNVDHKPSNTKVDKTVERKSCVECPPCPAPPVAGPSVFLFPPKPKDTLMISRTPEVTCVVVDVSQEDPEVQFNWYVDGVEVHNAKTKPREEQFNSTFRVVSVLTVVHQDWLNGKEYKCKVSNKGLPAPIEKTISKTKGQPREPQVYTLPPSQEEMTKNQVSLTCLVKGFYPSDIAVEWESNGQPENNYKTTPPMLDSDGSFFLYSKLTVDKSRWQEGNVFSCSVMHEALHNHYTQKSLSLSP
light: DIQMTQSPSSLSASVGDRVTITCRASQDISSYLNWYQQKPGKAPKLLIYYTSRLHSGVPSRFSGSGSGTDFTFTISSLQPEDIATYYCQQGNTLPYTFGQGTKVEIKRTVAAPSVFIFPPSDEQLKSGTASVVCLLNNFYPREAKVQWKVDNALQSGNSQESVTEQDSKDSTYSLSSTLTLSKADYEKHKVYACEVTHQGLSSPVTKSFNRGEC
notes: L(WT) as L chain; copies: 2 + 2
binding relative to WT-IgG1 [8]: ~1.4 times of WT-IgG1

Second part, the binder after the results:

BaF/gp130-neutralizing activity, 100% inhibitory concentration, against WT [1]: ≥ 100 times higher than WT
ka relative to PF1-IgG1 [2]: ~0.5 fold of PF1-IgG1
B1: F2H/L39-IgG1 (antibody, V domains shown)
VH: QVQLQESGPGLVKPSETLSLTCAVSGYSISDDHAWSWVRQPPGEGLEWIGYISYSGITNYNPSLQDRVTISRDNSKNTLYLQMNSLRAEDTAVYYCARLLARATAMDYWGQGILVTVSS
VL: DIQMTQSPSSLSASVGDSVTITCQASEDISSYLNWYQQKPGKAPELLIYYGSELESGVPSRFSGSGSGTDFTFTISSLEAEDAATYYCGQGNRLPYTFGQGTKVEIER

fold higher affinity than TOCILIZUMAB [3]: 2 times
B3: Fv4-M73 (antibody, V domains shown)
VH: QVQLQESGPGLVKPSETLSLTCAVSGHSISHDHAWSWVRQPPGEGLEWIGFISYSGITNYNPSLQGRVTISRDNSKNTLYLQMNSLRAEDTAVYYCARSLARTTAMDYWGEGTLVTVSS
VL: DIQMTQSPSSLSASVGDSVTITCQASTDISSHLNWYQQKPGKAPELLIYYGSHLLSGVPSRFSGSGSGTDFTFTISSLEAEDAATYYCGQGNRLPYTFGQGTKVEIER
notes: also called H chain VH3-M73, L chain VL3-kappa

BaF/gp130-neutralizing activity, 100% inhibitory concentration, against WT [1]: ~50 times higher than WT
fold higher affinity than WT [4]: ~50 times
B4: RD-6 (antibody, V domains shown)
VH: QVQLQESGPGLVRPSQTLSLTCTVSGYSITSDHAWSWVRQPPGRGLEWIGYISYSGITTYNPSLKSRVTMLRDTSKNQFSLRLSSVTAADTAVYYCARLLARATAMDYWGQGSLVTVSS
VL: DIQMTQSPSSLSASVGDRVTITCRASQDISSYLNWYQQKPGKAPKLLIYYTSRLHSGVPSRFSGSGSGTDFTFTISSLQPEDIATYYCQQGNTLPYTFGQGTKVEIK

BaF/gp130-neutralizing activity, 100% inhibitory concentration, against WT [1]: ~100 times higher than WT
fold improved affinity compared to WT [5]: 40 to 60 times
fold improved affinity compared to WT [6]: 40 to 60 times
B7: RDC-23 (antibody, V domains shown)
VH: QVQLQESGPGLVRPSQTLSLTCTVSGYSITSDHAWSWVRQPPGRGLEWIGYISYSGITTYNPSLKSRVTMLRDTSKNQFSLRLSSVTAADTAVYYCARVLARITAMDYWGQGSLVTVSS
VL: DIQMTQSPSSLSASVGDRVTITCRASQDISSYLNWYQQKPGKAPKLLIYYTSRLHSGVPSRFSGSGSGTDFTFTISSLQPEDIATYYCGQGNRLPYTFGQGTKVEIK
notes: IgG; also called H chain RDC-5H, L chain RDC-11L

binding relative to WT-IgG1 [8]: ~3.8 times of WT-IgG1
B10: WT-M73 (antibody)
heavy: QVQLQESGPGLVRPSQTLSLTCTVSGYSITSDHAWSWVRQPPGRGLEWIGYISYSGITTYNPSLKSRVTMLRDTSKNQFSLRLSSVTAADTAVYYCARSLARTTAMDYWGQGSLVTVSSASTKGPSVFPLAPSSKSTSGGTAALGCLVKDYFPEPVTVSWNSGALTSGVHTFPAVLQSSGLYSLSSVVTVPSSNFGTQTYTCNVDHKPSNTKVDKTVERKSCVECPPCPAPPVAGPSVFLFPPKPKDTLMISRTPEVTCVVVDVSQEDPEVQFNWYVDGVEVHNAKTKPREEQFNSTFRVVSVLTVVHQDWLNGKEYKCKVSNKGLPAPIEKTISKTKGQPREPQVYTLPPSQEEMTKNQVSLTCLVKGFYPSDIAVEWESNGQPENNYKTTPPMLDSDGSFFLYSKLTVDKSRWQEGNVFSCSVMHEALHAHYTQKSLSLSP
light: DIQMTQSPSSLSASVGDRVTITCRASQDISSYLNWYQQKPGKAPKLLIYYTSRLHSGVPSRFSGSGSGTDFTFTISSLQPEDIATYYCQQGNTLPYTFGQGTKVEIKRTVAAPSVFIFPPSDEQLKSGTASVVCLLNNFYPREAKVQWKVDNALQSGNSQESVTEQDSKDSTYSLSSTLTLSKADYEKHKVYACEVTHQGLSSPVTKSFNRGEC
notes: WT-M58 with alanine at position 434 (EU numbering); L(WT) as L chain; copies: 2 + 2
